± gives the standard error. For part of these data: Variants at the floor of the assay were thinned out.
B1: glmS ribozyme (parent)
chain: AUAAAAGCGCCAGAACUACAGAAAUGUAGUUGACGAGGAGGAGGUUUAUCGAAUUUUCGGCGGAUGCCUCCAAA

Legend:
Details in all cases: with glucosamine-6-phosphate
glucosamine-6-phosphate [1] = variants of: B1; assay: kcat; higher = faster cleavage; RNA array
Procedure, shortened: (§1)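 Barcoded ribozyme variants on sequenced MiSeq chips were transcribed in situ by E. coli RNA polymerase and followed at 37 °C through a hybridised Cy3 probe. Glucosamine-6-phosphate at 40 μM to 10 mM in HEPES/KCl/Mg(OAc)2 buffer was flowed in, and tiles were imaged over ~14 h. Signals were normalised to baseline and to non-cleaving reference variants, and per-tile medians were fit to one- or two-exponential decays to give kobs. Weighted Michaelis–Menten fits across concentrations gave kcat and KM.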

glucosamine-6-phosphate [2] = variants of: B1; assay: KM; higher = weaker cofactor use; RNA array
Procedure, shortened: as §1

glucosamine-6-phosphate [3] = variants of: B1; assay: self-cleavage kobs at 160 uM GlcN6P; higher = faster cleavage; RNA array
Procedure, shortened: as §1

glucosamine-6-phosphate [4] = variants of: B1; assay: self-cleavage kobs at 640 uM GlcN6P; higher = faster cleavage; RNA array
Procedure, shortened: as §1

glucosamine-6-phosphate [5] = variants of: B1; assay: self-cleavage kobs at 2500 uM GlcN6P; higher = faster cleavage; RNA array
Procedure, shortened: as §1

glucosamine-6-phosphate [6] = variants of: B1; assay: self-cleavage kobs at 10000 uM GlcN6P; higher = faster cleavage; RNA array
Procedure, shortened: as §1

glucosamine-6-phosphate [7] = variants of: B1; assay: self-cleavage kobs at 40 uM GlcN6P; higher = faster cleavage; RNA array
Procedure, shortened: as §1

Variant	kcat (glucosamine-6-phosphate [1])	KM (glucosamine-6-phosphate [2])	self-cleavage kobs at 160 uM GlcN6P (glucosamine-6-phosphate [3])	self-cleavage kobs at 640 uM GlcN6P (glucosamine-6-phosphate [4])	self-cleavage kobs at 2500 uM GlcN6P (glucosamine-6-phosphate [5])	self-cleavage kobs at 10000 uM GlcN6P (glucosamine-6-phosphate [6])	self-cleavage kobs at 40 uM GlcN6P (glucosamine-6-phosphate [7])
A15G C68A	6.63e-05 ± 4.7e-06 s⁻¹	131 ± 49 µM	3.62e-05 ± 9e-06 s⁻¹	5.49e-05 ± 1.2e-05 s⁻¹	7.32e-05 ± 1.2e-05 s⁻¹	6.03e-05 ± 9.3e-06 s⁻¹	
A33U U54A C70A	4.75e-05 ± 1.3e-05 s⁻¹			5.86e-05 ± 2e-05 s⁻¹			
G13A U45G	8.96e-05 ± 7.9e-06 s⁻¹	4310 ± 840 µM			3.13e-05 ± 8.3e-06 s⁻¹	6.32e-05 ± 1e-05 s⁻¹	
G44U C67A	0.0253 ± 0.0035 s⁻¹	1130 ± 210 µM	0.00267 ± 0.00064 s⁻¹	0.00977 ± 0.0013 s⁻¹	0.0244 ± 0.0065 s⁻¹	0.0209 ± 0.0036 s⁻¹	0.000868 ± 0.0001 s⁻¹
G32A G60C	< 1e-05 s⁻¹	183 ± 55 µM				< 1e-05 s⁻¹	
G37A G41C	2.41e-05 ± 9.5e-06 s⁻¹				3.87e-05 ± 1.5e-05 s⁻¹		
A14G A48G	0.000249 ± 3.2e-05 s⁻¹	648 ± 220 µM	3.64e-05 ± 1.4e-05 s⁻¹	0.000128 ± 1.4e-05 s⁻¹	0.000232 ± 2.6e-05 s⁻¹	0.000203 ± 2.9e-05 s⁻¹	
C10U A12G	2.19e-05 ± 1.8e-06 s⁻¹	2150 ± 870 µM					
A52U C71A	0.000156 ± 2.6e-05 s⁻¹			5.96e-05 ± 1.3e-05 s⁻¹		0.000144 ± 1.6e-05 s⁻¹	< 1e-05 s⁻¹
U46A U69C	0.00197 ± 0.00058 s⁻¹	1590 ± 770 µM	0.000133 ± 2.7e-05 s⁻¹	0.00073 ± 0.00012 s⁻¹	0.00122 ± 0.00015 s⁻¹	0.00162 ± 0.00027 s⁻¹	9.53e-05 ± 1.9e-05 s⁻¹
U47A C71G	0.000753 ± 9.5e-05 s⁻¹	1130 ± 300 µM	0.000142 ± 4.2e-05 s⁻¹	0.000227 ± 5.2e-05 s⁻¹	0.00055 ± 0.00011 s⁻¹	0.000682 ± 9.3e-05 s⁻¹	2.61e-05 ± 8.5e-06 s⁻¹
A39U G43U	0.000561 ± 0.00011 s⁻¹	1770 ± 600 µM	5.96e-05 ± 8.5e-06 s⁻¹	0.000127 ± 1.3e-05 s⁻¹	0.000418 ± 4.9e-05 s⁻¹	0.00046 ± 4.6e-05 s⁻¹	1.76e-05 ± 8.1e-06 s⁻¹
G43U U49C	< 1e-05 s⁻¹		< 1e-05 s⁻¹	< 1e-05 s⁻¹	< 1e-05 s⁻¹		< 1e-05 s⁻¹
C68U C71G	1.73e-05 ± 3.6e-06 s⁻¹			2.44e-05 ± 1e-05 s⁻¹	1.93e-05 ± 8.3e-06 s⁻¹		
U30G G32A	0.00542 ± 0.0022 s⁻¹	4720 ± 2300 µM	0.00017 ± 2.3e-05 s⁻¹	0.000709 ± 9.2e-05 s⁻¹	0.00123 ± 0.0003 s⁻¹	0.00438 ± 0.00065 s⁻¹	5.91e-05 ± 1.1e-05 s⁻¹
